For test [1], the target named is Human sIL-1R1 (R&D Systems), un-tagged (human) (UniProt P14778). Put plainly: KinExA, IgG equilibrated in solution with un-tagged sIL-1R1; free IgG captured on IL-1R1 beads.
Test [2] has as its target human IL-1R1, endogenous on human cells (HeLa cells; whole blood) (human) (UniProt P14778). Put plainly: cell-based or functional assay.

This is an account of results in patent US20100221257A1.

As a reminder, the Kd is the constant that tells how readily two partners part at equilibrium. Low readings indicate tighter binding, high ones weaker binding.

Chain of human IL-1R1, endogenous on human cells (HeLa cells; whole blood) (human) (P14778 18-569): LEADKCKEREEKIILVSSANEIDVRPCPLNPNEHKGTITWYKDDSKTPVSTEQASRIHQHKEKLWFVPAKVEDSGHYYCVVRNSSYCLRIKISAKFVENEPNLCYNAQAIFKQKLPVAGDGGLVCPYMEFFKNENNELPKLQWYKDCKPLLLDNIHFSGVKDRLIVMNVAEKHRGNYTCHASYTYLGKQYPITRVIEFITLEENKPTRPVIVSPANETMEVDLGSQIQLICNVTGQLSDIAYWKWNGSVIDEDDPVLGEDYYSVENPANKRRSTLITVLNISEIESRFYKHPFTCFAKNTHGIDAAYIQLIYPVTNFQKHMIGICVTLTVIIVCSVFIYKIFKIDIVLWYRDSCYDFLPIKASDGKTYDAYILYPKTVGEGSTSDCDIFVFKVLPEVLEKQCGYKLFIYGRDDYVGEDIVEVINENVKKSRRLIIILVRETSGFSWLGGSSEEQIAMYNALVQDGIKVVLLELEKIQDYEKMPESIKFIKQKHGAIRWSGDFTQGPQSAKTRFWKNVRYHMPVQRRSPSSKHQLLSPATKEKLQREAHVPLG
Chain of Human sIL-1R1 (R&D Systems), un-tagged (human) (P14778 18-332 limits assumed): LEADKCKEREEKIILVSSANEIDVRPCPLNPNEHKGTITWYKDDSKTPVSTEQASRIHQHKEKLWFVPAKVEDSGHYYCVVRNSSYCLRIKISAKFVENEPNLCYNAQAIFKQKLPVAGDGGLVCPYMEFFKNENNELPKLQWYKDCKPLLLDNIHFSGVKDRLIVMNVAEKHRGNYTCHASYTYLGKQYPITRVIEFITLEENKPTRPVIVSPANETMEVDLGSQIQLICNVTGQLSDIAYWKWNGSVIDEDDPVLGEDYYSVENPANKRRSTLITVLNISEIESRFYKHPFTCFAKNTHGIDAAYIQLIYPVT

With AMG108 IgG2 (antibody), the Kd in test [1] was 4.12 pM. Moreover, in test [2], the IC50, inhibition of IL-1 alpha induced IL-8 release in HeLa cells (N = 3) came to 11.7 pM; the IC50, inhibition of IL-1 beta induced IL-8 release in HeLa cells (run with the GL IgG2 set, N = 5-6) was found to be 5.9 pM; the IC50, inhibition of IL-1 beta induced IL-8 release in HeLa cells (run with the IgG1 set, N = 6-7) turned out to be 5.3 pM; the IC50, inhibition of human IL-1β induced IL-8 release from HeLa cells stood at 9 pM.
